According to publication PMC4164936, “The translation elongation factor eEF1A1 couples transcription to translation during heat shock response”:

T1: eEF1A1 (Homo sapiens (HeLa S-100)) (UniProt P68104)
T1 sequence: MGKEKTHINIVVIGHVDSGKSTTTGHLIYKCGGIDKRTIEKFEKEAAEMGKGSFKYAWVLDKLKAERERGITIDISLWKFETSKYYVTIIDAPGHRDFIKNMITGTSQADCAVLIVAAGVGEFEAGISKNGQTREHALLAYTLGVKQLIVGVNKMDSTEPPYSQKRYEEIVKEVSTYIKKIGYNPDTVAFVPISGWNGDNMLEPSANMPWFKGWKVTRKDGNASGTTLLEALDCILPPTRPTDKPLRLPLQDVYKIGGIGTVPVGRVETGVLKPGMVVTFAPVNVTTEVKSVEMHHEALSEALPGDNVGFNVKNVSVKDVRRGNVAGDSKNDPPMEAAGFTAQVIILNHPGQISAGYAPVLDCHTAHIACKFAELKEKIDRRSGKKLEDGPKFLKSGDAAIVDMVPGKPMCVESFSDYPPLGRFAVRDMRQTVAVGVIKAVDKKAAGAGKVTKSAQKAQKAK


Tests used:
[1] = biological target: T1, eEF1A1 (Homo sapiens (HeLa S-100)); test: EMSA; conditions: RNA EMSA: purified eEF1A1 with 20 kcpm RNA (~0.1 pmol/ul), 50 uM GTP, 30 min, room temperature; protein stock in 50 mM Tris-HCl pH 7.5, 100 mM KCl, 0.5 mM …
[2] = biological target: eEF1A1 (Homo sapiens (HeLa S-100), UniProt P68104 1-462); test: EMSA; relatively weak; reviewer notes no saturation, >300 nM; RNA EMSA: purified eEF1A1 with 20 kcpm RNA (~0.1 pmol/ul), 50 uM GTP, 30 min, room temperature; protein stock in 50 mM Tris-HCl pH 7.5, 100 mM KCl, 0.5 mM EDTA, 2 mM DTT, 10% glycerol; binding buffer per cited protocols (Yan 2008, Shamovsky 2006); conditions: protein: native; tags: none; (radiolabeled); blunt

| Molecule | Kd [1] [nM] | binding [1] | binding result [2] |
| --- | --- | --- | --- |
| GGGGGGCCUUUCCAAGAUUGCUGUUUUUGUUUUGGAGCUUCAAGACUUUGCAUUUCCUAGUAUUUCUGUUUGUCAGUUCUCAAUUUCCUGUGUUUGCAAUGUUGAAAUUUUUUGGUGAAGUACUGAACUUGCUUUUUUUCCGGUUUCUACAUGCAGAGAUGAAUUUAUACUGCCAUCUUACGACUAUUUCUUCUUUUUAAUACACUUAACUCAGGCCAUUUUUUAAGUUGGUUACUUCAAAGUAAAUAAACUUUAAAAUUCAA [HSP70 3'UTR] | 100 | binds |  |
| HSP70 3'UTR | 100 |  |  |
| HSPA1A -141/-91 promoter (dsDNA) DNA 1: GGAAGGCTGGGGGGCAGGACGGGAGGCGAAAACCCTGGAATATTCCCGACC DNA 2: GGTCGGGAATATTCCAGGGTTTTCGCCTCCCGTCCTGCCCCCCAGCCTTCC |  |  | binds |
